Changes are numbered by the printed parent chain.

The labels stand for the following.
B1: NRC3_wobSeed61_DR2_T5C_o1 (dsDNA)
DNA 1: GCCGCCCAAGGTCAGCAGGTCAGTGAAAGCGACGTGGCGATTGACAGCGTAGAATGAAGG
DNA 2: CCTTCATTCTACGCTGTCAATCGCCACGTCGCTTTCACTGACCTGCTGACCTTGGGCGGC
B2: NRC3_wobSeed89_DR3_G16T_o1 (dsDNA)
DNA 1: GCCTATGTAGGTTAATGGGGTCATTCAGTTTGAAAGGCGATTGACAGCGTAGAATGAAGG
DNA 2: CCTTCATTCTACGCTGTCAATCGCCTTTCAAACTGAATGACCCCATTAACCTACATAGGC
B3: NRC3_wobSeed50_DR2_C25T_o1 (dsDNA)
DNA 1: GCCCTAGTTGGTCAGGAGGTCACATACCGGATATGAGCGATTGACAGCGTAGAATGAAGG
DNA 2: CCTTCATTCTACGCTGTCAATCGCTCATATCCGGTATGTGACCTCCTGACCAACTAGGGC
B4: NRC3_wobSeed5_DR0_C4T_o1 (dsDNA)
DNA 1: GCCTTTACGGGTCAAGGTTATAGCACGGGTGGTACGGCGATTGACAGCGTAGAATGAAGG
DNA 2: CCTTCATTCTACGCTGTCAATCGCCGTACCACCCGTGCTATAACCTTGACCCGTAAAGGC
B5: NRC3_wobSeed5_DR0_G9A_o1 (dsDNA)
DNA 1: B4 DNA 1 with T4C, G9A
DNA 2: B4 DNA 2 with C52T, A57G
B6: NRC3_wobSeed5_DR0_T5G_o1 (dsDNA)
DNA 1: B4 DNA 1 with T4C, T5G
DNA 2: B4 DNA 2 with A56C, A57G
B7: NRC3_wobSeed5_DR0_A22C_o1 (dsDNA)
DNA 1: B4 DNA 1 with T4C, A22C
DNA 2: B4 DNA 2 with T39G, A57G
B8: NRC3_wobSeed101_DR4_C18T_o1 (dsDNA)
DNA 1: GCCCTTACGGGTCACTCTAGGTTATAGCATCGGAGTGCGATTGACAGCGTAGAATGAAGG
DNA 2: CCTTCATTCTACGCTGTCAATCGCACTCCGATGCTATAACCTAGAGTGACCCGTAAGGGC
B9: NRC3_wobSeed106_DR4_G23C_o1 (dsDNA)
DNA 1: GCCTCGAAAGGTCGGTTGAGGTCAGTATACGGATAAGCGATTGACAGCGTAGAATGAAGG
DNA 2: CCTTCATTCTACGCTGTCAATCGCTTATCCGTATACTGACCTCAACCGACCTTTCGAGGC
B10: NRC3_wobSeed106_DR4_G6C_o1 (dsDNA)
DNA 1: B9 DNA 1 with G6C, C23G
DNA 2: B9 DNA 2 with G38C, C55G
B11: NRC3_wobSeed30_DR1_G7T_o1 (dsDNA)
DNA 1: GCACTATCAGGCCAAGGGTCACTCAAGATTAGTCCGGCGATTGACAGCGTAGAATGAAGG
DNA 2: CCTTCATTCTACGCTGTCAATCGCCGGACTAATCTTGAGTGACCCTTGGCCTGATAGTGC
B12: NRC3_wobSeed21_DR0_A7T_o1 (dsDNA)
DNA 1: GCCGTCTAAGTTCAAGGTAACGTAACAGAAAGCAGCGCGATTGACAGCGTAGAATGAAGG
DNA 2: CCTTCATTCTACGCTGTCAATCGCGCTGCTTTCTGTTACGTTACCTTGAACTTAGACGGC
B13: NRC3_wobSeed137_DR5_A5G_o1 (dsDNA)
DNA 1: GCATGTGTAGGTTACATCCGGGTCATTCAGGCTATGGCGATTGACAGCGTAGAATGAAGG
DNA 2: CCTTCATTCTACGCTGTCAATCGCCATAGCCTGAATGACCCGGATGTAACCTACACATGC
B14: NRC3_wobSeed137_DR5_T6C_o1 (dsDNA)
DNA 1: B13 DNA 1 with G5A, T6C
DNA 2: B13 DNA 2 with A55G, C56T
B15: NRC3_wobSeed138_DR5_C7A_o1 (dsDNA)
DNA 1: GCGATAAAGGGTCAGCTAGAGGCCAGAGTATGGAAAGCGATTGACAGCGTAGAATGAAGG
DNA 2: CCTTCATTCTACGCTGTCAATCGCTTTCCATACTCTGGCCTCTAGCTGACCCTTTATCGC
B16: NRC3_wobSeed138_DR5_G9A_o1 (dsDNA)
DNA 1: B15 DNA 1 with A7C, G9A
DNA 2: B15 DNA 2 with C52T, T54G
B17: NRC3_wobSeed13_DR0_T18G_o1 (dsDNA)
DNA 1: GCCGTCCAAGGTCAAGGGCAGTGAAAGAGACTCGAAGCGATTGACAGCGTAGAATGAAGG
DNA 2: CCTTCATTCTACGCTGTCAATCGCTTCGAGTCTCTTTCACTGCCCTTGACCTTGGACGGC
B18: NRC3_wobSeed82_DR3_A15T_o1 (dsDNA)
DNA 1: GCATCGAAAGGTCGTCGAGGTGAGTATACACCGTTTGCGATTGACAGCGTAGAATGAAGG
DNA 2: CCTTCATTCTACGCTGTCAATCGCAAACGGTGTATACTCACCTCGACGACCTTTCGATGC
B19: NRC3_wobSeed140_DR5_A22G_o1 (dsDNA)
DNA 1: GCAGAATGAGGTTATACGTAGGTCAGGGAAGAAAGTGCGATTGACAGCGTAGAATGAAGG
DNA 2: CCTTCATTCTACGCTGTCAATCGCACTTTCTTCCCTGACCTACGTATAACCTCATTCTGC
B20: NRC3_wobSeed130_DR5_T29C_o1 (dsDNA)
DNA 1: GCCTCGAAAGGTCGTGCTCAGGTGAGTACACCAAACGCGATTGACAGCGTAGAATGAAGG
DNA 2: CCTTCATTCTACGCTGTCAATCGCGTTTGGTGTACTCACCTGAGCACGACCTTTCGAGGC
B21: NRC3_wobSeed130_DR5_G16C_o1 (dsDNA)
DNA 1: B20 DNA 1 with G16C, C29T
DNA 2: B20 DNA 2 with G32A, C45G
B22: NRC3_wobSeed130_DR5_C19T_o1 (dsDNA)
DNA 1: B20 DNA 1 with C19T, C29T
DNA 2: B20 DNA 2 with G32A, G42A
B23: NRC3_wobSeed58_DR2_G23C_o1 (dsDNA)
DNA 1: GCATCGAAAGGTCGTGAGGTGACTATACAGAAAGGCGCGATTGACAGCGTAGAATGAAGG
DNA 2: CCTTCATTCTACGCTGTCAATCGCGCCTTTCTGTATAGTCACCTCACGACCTTTCGATGC
B24: NRC3_wobSeed112_DR4_T8A_o1 (dsDNA)
DNA 1: GCTAGCCAAGGTCAGATCGGGCCAGTATACGCTATAGCGATTGACAGCGTAGAATGAAGG
DNA 2: CCTTCATTCTACGCTGTCAATCGCTATAGCGTATACTGGCCCGATCTGACCTTGGCTAGC
B25: NRC3_wobSeed45_DR1_A8G_o1 (dsDNA)
DNA 1: GCTGTCAGAGTTCAAAGGTAACGTAAGTATCCACACGCGATTGACAGCGTAGAATGAAGG
DNA 2: CCTTCATTCTACGCTGTCAATCGCGTGTGGATACTTACGTTACCTTTGAACTCTGACAGC
B26: NRC3_wobSeed119_DR4_o1 (dsDNA)
DNA 1: GCGGAACGAGGGCATTCGAGTTGATAGCATGGCGATGCGATTGACAGCGTAGAATGAAGG
DNA 2: CCTTCATTCTACGCTGTCAATCGCATCGCCATGCTATCAACTCGAATGCCCTCGTTCCGC
B27: NRC3_wobSeed66_DR2_A17G_o1 (dsDNA)
DNA 1: GCAATACAGGGTCACTGGGCCAGAGTAGGTACGAATGCGATTGACAGCGTAGAATGAAGG
DNA 2: CCTTCATTCTACGCTGTCAATCGCATTCGTACCTACTCTGGCCCAGTGACCCTGTATTGC
B28: NRC3_wobSeed66_DR2_A17T_o1 (dsDNA)
DNA 1: B27 DNA 1 with G17T
DNA 2: B27 DNA 2 with C44A
B29: NRC3_wobSeed66_DR2_C15T_o1 (dsDNA)
DNA 1: B27 DNA 1 with C15T, G17A
DNA 2: B27 DNA 2 with C44T, G46A
B30: NRC3_wobSeed66_DR2_A27G_o1 (dsDNA)
DNA 1: B27 DNA 1 with G17A, A27G
DNA 2: B27 DNA 2 with T34C, C44T
B31: NRC3_wobSeed142_DR5_G22T_o1 (dsDNA)
DNA 1: GCATACCAAGGTGATCGTGAGTTCGTTGATACTAACGCGATTGACAGCGTAGAATGAAGG
DNA 2: CCTTCATTCTACGCTGTCAATCGCGTTAGTATCAACGAACTCACGATCACCTTGGTATGC

PXR:RXRa, sequence (O75469 whole entry, chain 1 of 2): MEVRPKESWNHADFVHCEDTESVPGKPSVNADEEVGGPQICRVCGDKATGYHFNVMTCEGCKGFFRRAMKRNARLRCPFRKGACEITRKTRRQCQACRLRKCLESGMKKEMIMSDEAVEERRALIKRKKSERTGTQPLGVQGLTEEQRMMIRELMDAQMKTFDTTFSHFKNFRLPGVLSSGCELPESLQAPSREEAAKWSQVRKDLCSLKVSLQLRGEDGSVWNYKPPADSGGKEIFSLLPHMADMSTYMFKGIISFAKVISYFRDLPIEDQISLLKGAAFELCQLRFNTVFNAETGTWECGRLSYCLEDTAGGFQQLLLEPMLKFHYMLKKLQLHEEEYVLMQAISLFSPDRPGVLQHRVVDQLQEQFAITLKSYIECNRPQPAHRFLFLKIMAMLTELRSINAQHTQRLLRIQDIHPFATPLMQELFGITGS
PXR:RXRa, sequence (P19793 whole entry, chain 2 of 2): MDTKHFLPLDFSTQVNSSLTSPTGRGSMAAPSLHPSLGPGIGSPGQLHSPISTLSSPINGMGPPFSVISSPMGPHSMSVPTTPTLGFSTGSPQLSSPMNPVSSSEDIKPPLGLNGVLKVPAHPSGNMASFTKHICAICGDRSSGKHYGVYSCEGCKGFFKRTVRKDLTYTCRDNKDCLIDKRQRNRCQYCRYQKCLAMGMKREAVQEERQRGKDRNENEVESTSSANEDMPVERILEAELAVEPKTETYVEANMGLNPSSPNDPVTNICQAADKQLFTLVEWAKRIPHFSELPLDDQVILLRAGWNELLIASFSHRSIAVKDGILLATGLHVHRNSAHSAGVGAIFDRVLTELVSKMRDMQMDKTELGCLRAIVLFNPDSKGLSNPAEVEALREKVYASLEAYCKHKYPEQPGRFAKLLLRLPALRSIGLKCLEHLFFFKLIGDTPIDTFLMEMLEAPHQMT

For this data set, the target named is PXR:RXRa (Homo sapiens, UniProt O75469;P19793 full;full). As to the kind of experiment: no ligand; PBM; 270 nM : 90 nM RXRa; PBS pH 7.4, 2% milk, 0.02% Triton X-100, 1 mM DTT, BSA, 0.4 mg/ml salmon testes DNA. The note with it: tags: His kept;His cleaved; copies: 1;1; label: surface-attached array probe. The method, boiled down:
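Ligand-free nuclear receptor dimers were applied to custom Agilent 4×180K protein-binding microarrays whose double-stranded probes carried direct-repeat seeds, single-nucleotide variants, half-site ablations and random human genomic background sequences in 34-nt variable regions. Incubation lasted 1 h. Binding z-scores were computed against the random background probes from regression-normalized fluorescence.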
In the case of B1, the binding signal is 3.73 PBM z-score against 500 random probes. Under B2 stands 6.66 PBM z-score against 500 random probes. The figure for B3 is 3.69 PBM z-score against 500 random probes; for B4 it is 3.7 PBM z-score against 500 random probes. For B5, the binding signal was 3.62 PBM z-score against 500 random probes. Turning to B6, the binding signal was 3.48 PBM z-score against 500 random probes. Regarding B7, the binding signal is 3.55 PBM z-score against 500 random probes. Under B8 stands 3.67 PBM z-score against 500 random probes; under B9, 6.52 PBM z-score against 500 random probes. For the molecule B10, the binding signal was 3.35 PBM z-score against 500 random probes. B11: the binding signal was 3.31 PBM z-score against 500 random probes. With B12, the binding signal was 3.59 PBM z-score against 500 random probes. Under B13 stands 3.72 PBM z-score against 500 random probes. Under B14 stands 3.61 PBM z-score against 500 random probes.

For the molecule B15, the binding signal was 3.54 PBM z-score against 500 random probes. With B16, the binding signal was 3.38 PBM z-score against 500 random probes. For B17, the binding signal is 3.34 PBM z-score against 500 random probes. Under B18 stands 3.66 PBM z-score against 500 random probes; under B19, 3.29 PBM z-score against 500 random probes.

For B20, the binding signal is 3.76 PBM z-score against 500 random probes. In the case of B21, the binding signal was 3.28 PBM z-score against 500 random probes. Under B22 stands 3.37 PBM z-score against 500 random probes; under B23, 3.52 PBM z-score against 500 random probes. B24: the binding signal was 3.44 PBM z-score against 500 random probes. The figure for B25 is 6.41 PBM z-score against 500 random probes; for B26 it is 3.4 PBM z-score against 500 random probes. As for B27, the binding signal is 3.74 PBM z-score against 500 random probes. For the molecule B28, the binding signal is 3.45 PBM z-score against 500 random probes. For the molecule B29, the binding signal is 3.57 PBM z-score against 500 random probes. B30: the binding signal is 3.32 PBM z-score against 500 random probes.

Take B31: the binding signal was 3.5 PBM z-score against 500 random probes.

For the origin of these results see PMC6555819, “Comprehensive study of nuclear receptor DNA binding provides a revised framework for understanding receptor specificity”.
